The test system of series [1] is HeLa Kyoto. Description: solubility in G1/S (NP-40 vs SDS abundance) (log2 ratio); higher = more soluble. Conditions: cell cycle stage: G1/S.
Series [2] has as its system HeLa Kyoto. Put plainly: melting temperature (median over replicates), in situ; higher = more thermally stable.
Series [3] concerns HeLa Kyoto. Put plainly: solubility change mitosis vs G1/S (difference of NP-40 vs SDS log2 ratios) (log2 ratio difference); higher = more soluble in mitosis.
The test system of series [4] is HeLa Kyoto. Description: thermal stability score vs G1/S (z-score of summed log2 fold changes over temperatures); higher = more thermally stable than in G1/S.
[5] abbreviates: cell cycle stage: early G1 (4.5 h after nocodazole release).
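For melting temperature (median over replicates), in situ in this document: HeLa Kyoto cells synchronized by double thymidine or nocodazole block, proteins quantified by TMT10plex mass spectrometry, three independent biological replicates.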
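For solubility change mitosis vs G1/S (difference of NP-40 vs SDS log2 ratios) in this document: synchronized HeLa Kyoto cells (double thymidine block for G1/S, nocodazole release for mitosis), protein amounts in NP-40 versus SDS lysates quantified by mass spectrometry, three biological replicates.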
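For solubility in G1/S (NP-40 vs SDS abundance) in this document: HeLa Kyoto cells arrested at G1/S by double thymidine block, proteins quantified by TMT10plex mass spectrometry in mild NP-40 versus SDS extracts, three biological replicates.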
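For thermal stability score vs G1/S (z-score of summed log2 fold changes over temperatures) in this document: synchronized HeLa Kyoto cells, proteins quantified by TMT10plex mass spectrometry, three biological replicates, mitosis taken 0.5 h after nocodazole release, G1/S directly after double thymidine block.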

“MLDFLAENNLCGQAILRIVSCGNAIIAELLRLSEFIPAVFRLKDRADQQKYGDIIFDFSYFKGPELWESKLDAKPELQDLDEEFRENNIEIVTRFYLAFQSVHKYIVDLNRYLDDLNEGVYIQQTLETVLLNEDGKQLLCEALYLYGVMLLVIDQKIEGEVRERMLVSYYRYSAARSSADSNMDDICKLLRSTGYSSQPGAKRPSNYPESYFQRVPINESFISMVIGRLRSDDIYNQVSAYPLPEHRSTALANQAAMLYVILYFEPSILHTHQAKMREIVDKYFPDNWVISIYMGITVNLVDAWEPYKAAKTALNNTLDLSNVREQASRYATVSERVHAQVQQFLKEGYLREEMVLDNIPKLLNCLRDCNVAIRWLMLHTADSACDPNNKRLRQIKDQILTDSRYNPRILFQLLLDTAQFEFILKEMFKQMLSEKQTKWEHYKKEGSERMTELADVFSGVKPLTRVEKNENLQAWFREISKQILSLNYDDSTAAGRKTVQLIQALEEVQEFHQLESNLQVCQFLADTRKFLHQMIRTINIKEEVLITMQIVGDLSFAWQLIDSFTSIMQESIRVNPSMVTKLRATFLKLASALDLPLLRINQANSPDLLSVSQYYSGELVSYVRKVLQIIPESMFTSLLKIIKLQTHDIIEVPTRLDKDKLRDYAQLGPRYEVAKLTHAISIFTEGILMMKTTLVGIIKVDPKQLLEDGIRKELVKRVAFALHRGLIFNPRAKPSELMPKLKELGATMDGFHRSFEYIQDYVNIYGLKIWQEEVSRIINYNVEQECNNFLRTKIQDWQSMYQSTHIPIPKFTPVDESVTFIGRLCREILRITDPKMTCHIDQLNTWYDMKTHQEVTSSRLFSEIQTTLGTFGLNGLDRLLCFMIVKELQNFLSMFQKIILRDRTVQDTLKTLMNAVSPLKSIVANSNKIYFSAIAKTQKIWTAYLEAIMKVGQMQILRQQIANELNYSCRFDSKHLAAALENLNKALLADIEAHYQDPSLPYPKEDNTLLYEITAYLEAAGIHNPLNKIYITTKRLPYFPIVNFLFLIAQLPKLQYNKNLGMVCRKPTDPVDWPPLVLGLLTLLKQFHSRYTEQFLALIGQFICSTVEQCTSQKIPEIPADVVGALLFLEDYVRYTKLPRRVAEAHVPNFIFDEFRTVL [KIAA0196]”: the “solubility in G1/S (log2)” value in the series with HeLa Kyoto [1] was -0.217. Besides, the figures for the melting temperature with HeLa Kyoto [2] (cell cycle stage: G1/S) and in the series on HeLa Kyoto [2] (cell cycle stage: mitosis) were 50.7 °C and 50 °C, respectively. Besides, the “solubility change mitosis (log2)” value in the series with HeLa Kyoto [3] was -0.117. Also, the values for the thermal stability score in the series on HeLa Kyoto [4] (setting [5]) and in the series with HeLa Kyoto [4] (cell cycle stage: mitosis) were 0.232 and -0.00652, respectively.
For “MLERPPALAMPMPTEGTPPPLSGTPIPVPAYFRHAEPGFSLKRPRGLSRSLPPPPPAKGSIPISRLFPPRTPGWHQLQPRRVSFRGEASETLQSPGYDPSRPESFFQQSFQRLSRLGHGSYGEVFKVRSKEDGRLYAVKRSMSPFRGPKDRARKLAEVGSHEKVGQHPCCVRLEQAWEEGGILYLQTELCGPSLQQHCEAWGASLPEAQVWGYLRDTLLALAHLHSQGLVHLDVKPANIFLGPRGRCKLGDFGLLVELGTAGAGEVQEGDPRYMAPELLQGSYGTAADVFSLGLTILEVACNMELPHGGEGWQQLRQGYLPPEFTAGLSSELRSVLVMMLEPDPKLRATAEALLALPVLRQPRAWGVLWCMAAEALSRGWALWQALLALLCWLWHGLAHPASWLQPLGPPATPPGSPPCSLLLDSSLSSNWDDDSLGPSLSPEAVLARTVGSTSTPRSRCTPRDALDLSDINSEPPRGSFPSFEPRNLLSLFEDTLDPT [PKMYT1]”, the “solubility in G1/S (log2)” value with HeLa Kyoto [1] was determined as 0.406. Further, the melting temperature came out at 48.7 °C in the series on HeLa Kyoto [2] (cell cycle stage: G1/S) and 49 °C with HeLa Kyoto [2] (cell cycle stage: mitosis). For the same sequence, the “solubility change mitosis (log2)” value in the series on HeLa Kyoto [3] was -0.332. Also, the thermal stability score in the series with HeLa Kyoto [4] (setting [5]) turned out to be 0.535; with HeLa Kyoto [4] (cell cycle stage: mitosis), 0.495.
“MLETLRERLLSVQQDFTSGLKTLSDKSREAKVKSKPRTVPFLPKYSAGLELLSRYEDTWAALHRRAKDCASAGELVDSEVVMLSAHWEKKKTSLVELQEQLQQLPALIADLESMTANLTHLEASFEEVENNLLHLEDLCGQCELERCKHMQSQQLENYKKNKRKELETFKAELDAEHAQKVLEMEHTQQMKLKERQKFFEEAFQQDMEQYLSTGYLQIAERREPIGSMSSMEVNVDMLEQMDLMDISDQEALDVFLNSGGEENTVLSPALGPESSTCQNEITLQVPNPSELRAKPPSSSSTCTDSATRDISEGGESPVVQSDEEEVQVDTALATSHTDREATPDGGEDSDS [DTNBP1]”: the “solubility in G1/S (log2)” value in the series on HeLa Kyoto [1] came out at 0.267. For the same sequence, the melting temperature in the series with HeLa Kyoto [2] (cell cycle stage: G1/S) stood at 54.1 °C. Further, the “solubility change mitosis (log2)” value in the series on HeLa Kyoto [3] was -0.387. For the same sequence, the thermal stability score with HeLa Kyoto [4] (setting [5]) is -0.457; in the series with HeLa Kyoto [4] (cell cycle stage: mitosis), -0.463.
Regarding “MLGAWAVEGTAVALLRLLLLLLPPAIRGPGLGVAGVAGAAGAGLPESVIWAVNAGGEAHVDVHGIHFRKDPLEGRVGRASDYGMKLPILRSNPEDQILYQTERYNEETFGYEVPIKEEGDYVLVLKFAEVYFAQSQQKVFDVRLNGHVVVKDLDIFDRVGHSTAHDEIIPMSIRKGKLSVQGEVSTFTGKLYIEFVKGYYDNPKVCALYIMAGTVDDVPKLQPHPGLEKKEEEEEEEEYDEGSNLKKQTNKNRVQSGPRTPNPYASDNSSLMFPILVAFGVFIPTLFCLCRL [MLEC]”, the “solubility in G1/S (log2)” value in the series with HeLa Kyoto [1] is -0.0175. Besides, the melting temperature in the series on HeLa Kyoto [2] (cell cycle stage: G1/S) was found to be 53.7 °C; with HeLa Kyoto [2] (cell cycle stage: mitosis) it was 53.6 °C. Further, the “solubility change mitosis (log2)” value with HeLa Kyoto [3] was -0.0845. Further, the thermal stability score in the series on HeLa Kyoto [4] (setting [5]) was 1.83; in the series with HeLa Kyoto [4] (cell cycle stage: mitosis) it was 2.38.

(Values after the supplement of paper PMC5998384.)
